Several values for one entry are separate records, joined by “and”; a condition that tells them apart may be missing. Equal entries are not always repeated.
What was measured:
[1] = biological target: mouse PROM1, photoreceptor-specific isoform SV8 (contains exon 19a), Flag-tagged (mouse); assay: native gel or EMSA
[2] = biological target: mouse PROM1 SV8 lacking exon 19a, Flag-tagged (mouse); assay: native gel or EMSA

| stoichiometry N [1] | stoichiometry N [2] | Substance |
| --- | --- | --- |
| 2 and 4 |  | mouse PROM1, photoreceptor-specific isoform SV8 (contains exon 19a), Flag-tagged (natural protein) |
|  | 2 and 4 | mouse PROM1 SV8 lacking exon 19a, Flag-tagged (natural protein) |
